We go through 3 molecules from patent WO2018178074A1 (dated 2018).

The target of assay [1] is T1, human FAP on cells (human, UniProt Q12884 1-760).
T1 construct: Natural FAP of the melanoma line WM266-4, or human FAP from vector pETR4921 in NIH/3T3 cells; also called huFAP on WM266-4 cells; human FAP on NIH/3T3-huFAP clone 39 cells
Briefly: flow cytometry on NIH/3T3-huFAP clone 39 cells.

In assay [2] the target is T2, human 4-1BB on cells (human, UniProt Q07011 24-255).
T2 construct: also called human 4-1BB on NF-kB-luciferase human-4-1BB HeLa clone 26 cells
T2 sequence (Q07011 24-255 limits assumed): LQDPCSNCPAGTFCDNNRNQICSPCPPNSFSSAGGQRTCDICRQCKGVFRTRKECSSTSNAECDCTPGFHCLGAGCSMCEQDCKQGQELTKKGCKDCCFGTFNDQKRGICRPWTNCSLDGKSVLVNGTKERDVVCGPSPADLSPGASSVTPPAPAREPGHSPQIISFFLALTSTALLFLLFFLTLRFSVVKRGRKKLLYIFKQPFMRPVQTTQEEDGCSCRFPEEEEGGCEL
As to the kind of experiment: flow cytometry on activated human PBMC (legend of Figure 14). (Flow cytometry measures light scatter and fluorescence of single cells or particles in a stream.)

The target of assay [3] is T3, human FAP (soluble, second analyte in SPR) (human, UniProt Q12884 26-760).
T3 construct: also called human FAP protein
As to the kind of experiment: SPR Biacore T200, biotinylated human 4-1BB Fc(kih) on SA chip, construct 200 nM, then human FAP 500 nM. Background: SPR reads the build-up and loss of mass on a sensor chip optically.

B1: 25G7 huIgG1 P329G LALA (antibody, V domains shown)
VH: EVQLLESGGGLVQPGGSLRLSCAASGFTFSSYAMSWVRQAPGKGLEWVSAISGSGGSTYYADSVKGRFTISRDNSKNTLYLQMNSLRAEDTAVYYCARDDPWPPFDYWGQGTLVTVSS
VL: SSELTQDPAVSVALGQTVRITCQGDSLRSYYASWYQQKPGQAPVLVIYGKNNRPSGIPDRFSGSSSGNTASLTITGAQAEDEADYYCNSLDRRGMWVFGGGTKLTVLG
notes: Human IgG1 with Pro329Gly, Leu234Ala, Leu235Ala; also called 25G7 hulgGI P329G LALA; parental huIgG1 P329G LALA 25G7
With B1, the binding result in assay [1] is reported as “no binding”.

B2: 12B3 huIgG1 P329G LALA (antibody, V domains shown)
VH: QVQLVQSGAEVKKPGSSVKVSCKASGGTFSSYAISWVRQAPGQGLEWMGGIIPIFGTANYAQKFQGRVTITADKSTSTAYMELSSLRSEDTAVYYCARSEFRFYADFDYWGQGTTVTVSS
VL: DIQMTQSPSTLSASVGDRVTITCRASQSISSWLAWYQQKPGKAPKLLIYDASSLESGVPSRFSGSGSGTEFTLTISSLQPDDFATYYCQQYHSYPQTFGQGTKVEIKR
notes: Human IgG1 with Pro329Gly, Leu234Ala, Leu235Ala; also called 12B3 hulgGI P329G LALA; parental huIgG1 P329G LALA 12B3
As for B2, the binding result in assay [1] is listed as “no binding”.

B3: 25G7 x FAP 3+3 (bispecific antibody)
chain: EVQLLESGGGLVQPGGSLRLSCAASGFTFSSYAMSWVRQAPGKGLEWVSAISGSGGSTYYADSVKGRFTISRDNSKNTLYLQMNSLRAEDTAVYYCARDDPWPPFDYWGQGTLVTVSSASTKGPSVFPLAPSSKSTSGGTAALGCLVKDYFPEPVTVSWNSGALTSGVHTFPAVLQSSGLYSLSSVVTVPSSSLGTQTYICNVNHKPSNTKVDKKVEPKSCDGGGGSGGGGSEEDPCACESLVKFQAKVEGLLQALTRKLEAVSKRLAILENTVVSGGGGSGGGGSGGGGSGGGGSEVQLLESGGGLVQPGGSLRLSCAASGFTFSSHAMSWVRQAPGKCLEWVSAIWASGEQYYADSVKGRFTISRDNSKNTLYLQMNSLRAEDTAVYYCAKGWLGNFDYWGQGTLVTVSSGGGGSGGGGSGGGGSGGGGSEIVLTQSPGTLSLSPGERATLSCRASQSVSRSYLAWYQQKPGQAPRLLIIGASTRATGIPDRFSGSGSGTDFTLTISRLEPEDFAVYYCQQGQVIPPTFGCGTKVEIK
light: SSELTQDPAVSVALGQTVRITCQGDSLRSYYASWYQQKPGQAPVLVIYGKNNRPSGIPDRFSGSSSGNTASLTITGAQAEDEADYYCNSLDRRGMWVFGGGTKLTVRTVAAPSVFIFPPSDEQLKSGTASVVCLLNNFYPREAKVQWKVDNALQSGNSQESVTEQDSKDSTYSLSSTLTLSKADYEKHKVYACEVTHQGLSSPVTKSFNRGEC
notes: Trimer of three CMP chains, each paired with an anti-4-1BB light chain; no Fc; also called 3+3 25G7/28H1
Consider B3, for which the binding result in assay [2], in assay [3] and in assay [1] was “binds” in each case.
